From patent US20240181006A1, “POLYPEPTIDES BINDING ADAMTS5, MMP13 AND AGGRECAN” (Merck Patent GmbH, priority 2017, published 2024)

Assays:
[1] = biological target: recombinant human Aggrecan G1-IGD-G2 (human) (UniProt P16112); assay: periplasmic extract ELISA on Hu G1-IGD-G2
[2] = biological target: recombinant bovine Aggrecan G1-IGD-G2 (bovine) (UniProt P13608); assay: periplasmic extract ELISA on Bov G1-IGD-G2
[3] = biological target: recombinant cynomolgus Aggrecan G1-IGD-G2 (cynomolgus); assay: periplasmic extract ELISA on Cy G1-IGD-G2
[4] = biological target: recombinant rat Aggrecan G1-IGD-G2 (rat) (UniProt P07897); assay: periplasmic extract ELISA on Rat G1-IGD-G2
[5] = biological target: recombinant dog Aggrecan G1-IGD-G2 (dog) (UniProt Q28343); assay: periplasmic extract ELISA on Dog G1-IGD-G2
bovine ADAMTS5 (bovine) = bovine ADAMTS5 (bovine) (UniProt Q9TT92); assay: SPR (Biacore T100), ADAMTS5 immobilized on CM5, 100 nM ISVD, Experiment 3

OD 450 nm [1] | OD 450 nm [2] | OD 450 nm [3] | OD 450 nm [4] | OD 450 nm [5] | koff (bovine ADAMTS5 (bovine)) | Binder
2.38 OD 450 nm | 1.18 OD 450 nm | 2.32 OD 450 nm | 2.05 OD 450 nm | 1.9 OD 450 nm |  | anti-Aggrecan ISVD 114F08 (VHH) VHH: EVQLVESGGGLVQAGGSLRLSCAASGSTFIINVVRWYRRTPGKQRELVATISSGGNANYVDSVRGRFSISRDGAKNAVDLQMNGLKPEDTAVYYCNVPTTHYGGVYYGPYWGQGTLVTVSS
 |  |  |  |  | 4.3e-05 s⁻¹ | anti-ADAMTS5 ISVD 02F03 (VHH) VHH: EVQLVESGGGVVQPGGSLRLSCAASGRTVSSYAMGWFRQAPGKEREFVAGISRSAERTYYVDSLKGRFTISRDNSKNTVYLQMNSLRPEDTALYYCAADLDPNRIFSREEYAYWGQGTLVTVSS
